Reference: patent publication KR20200059381A

Columns and labels:
[1] = biological target: 구제역 바이러스 혈청형 O 배양액(cal1~cal4) (Foot-and-mouth disease virus serotype O); test: sandwich ELISA, cal1, 1E58 coat 8 ug/ml, 1E58-HRP 0.4 ug/ml, 450 nm
[2] = biological target: 구제역 바이러스 혈청형 O 배양액(cal1~cal4) (Foot-and-mouth disease virus serotype O); test: sandwich ELISA, cal1, 1E58 coat 4 ug/ml, 1E58-HRP 0.8 ug/ml, 450 nm
[3] = biological target: 구제역 바이러스 혈청형 O 배양액(cal1~cal4) (Foot-and-mouth disease virus serotype O); test: sandwich ELISA, cal3, 1E58 coat 4 ug/ml, 1E58-HRP 0.8 ug/ml, 450 nm
[4] = biological target: 구제역 바이러스 혈청형 O 배양액(cal1~cal4) (Foot-and-mouth disease virus serotype O); test: sandwich ELISA, cal4, 1E58 coat 4 ug/ml, 1E58-HRP 0.6 ug/ml, 450 nm
[5] = biological target: 구제역 바이러스 혈청형 O 배양액(cal1~cal4) (Foot-and-mouth disease virus serotype O); test: sandwich ELISA, cal4, 1E58 coat 4 ug/ml, 1E58-HRP 0.8 ug/ml, 450 nm
[6] = biological target: 구제역 바이러스 혈청형 O 배양액(cal1~cal4) (Foot-and-mouth disease virus serotype O); test: sandwich ELISA, cal1, 1E58 coat 2 ug/ml, 1E58-HRP 0.2 ug/ml, 450 nm
[7] = biological target: 구제역 바이러스 혈청형 O 배양액(cal1~cal4) (Foot-and-mouth disease virus serotype O); test: sandwich ELISA, cal3, 1E58 coat 1 ug/ml, 1E58-HRP 0.4 ug/ml, 450 nm
[8] = biological target: 불활화 FMDV 혈청형 O (Foot-and-mouth disease virus serotype O)
[9] = biological target: 불활화 FMDV 혈청형 A (Foot-and-mouth disease virus serotype A)
[10] = biological target: 불활화 FMDV 혈청형 Asia1 (Foot-and-mouth disease virus serotype Asia1)
[11] = biological target: 구제역 바이러스 혈청형 O 배양액(cal1~cal4) (Foot-and-mouth disease virus serotype O); test: sandwich ELISA, cal1, 1E58 coat 8 ug/ml, 1E58-HRP 0.8 ug/ml, 450 nm
[12] = biological target: 구제역 바이러스 혈청형 O 배양액(cal1~cal4) (Foot-and-mouth disease virus serotype O); test: sandwich ELISA, cal2, 1E58 coat 4 ug/ml, 1E58-HRP 0.6 ug/ml, 450 nm
[13] = biological target: 구제역 바이러스 혈청형 O 배양액(cal1~cal4) (Foot-and-mouth disease virus serotype O); test: sandwich ELISA, cal3, 1E58 coat 2 ug/ml, 1E58-HRP 0.6 ug/ml, 450 nm
[14] = biological target: 구제역 바이러스 혈청형 O 배양액(cal1~cal4) (Foot-and-mouth disease virus serotype O); test: sandwich ELISA, cal3, 1E58 coat 1 ug/ml, 1E58-HRP 0.6 ug/ml, 450 nm
[15] = biological target: 구제역 바이러스 혈청형 O 배양액(cal1~cal4) (Foot-and-mouth disease virus serotype O); test: sandwich ELISA, cal1, 1E58 coat 2 ug/ml, 1E58-HRP 0.4 ug/ml, 450 nm
[16] = biological target: FMDV 혈청형 A A22 Iraq (Foot-and-mouth disease virus serotype A); test: sandwich ELISA, 1E58 coat 4 ug/ml, 1E58-HRP 0.3 ug/ml, virus culture fluid
[17] = biological target: 구제역 바이러스 혈청형 O 배양액(cal1~cal4) (Foot-and-mouth disease virus serotype O); test: sandwich ELISA, cal1, 1E58 coat 1 ug/ml, 1E58-HRP 0.6 ug/ml, 450 nm
[18] = biological target: 구제역 바이러스 혈청형 O 배양액(cal1~cal4) (Foot-and-mouth disease virus serotype O); test: sandwich ELISA, cal2, 1E58 coat 2 ug/ml, 1E58-HRP 0.6 ug/ml, 450 nm
[19] = biological target: 구제역 바이러스 혈청형 O 배양액(cal1~cal4) (Foot-and-mouth disease virus serotype O); test: sandwich ELISA, cal1, 1E58 coat 8 ug/ml, 1E58-HRP 0.2 ug/ml, 450 nm
[20] = biological target: 구제역 바이러스 혈청형 O 배양액(cal1~cal4) (Foot-and-mouth disease virus serotype O); test: sandwich ELISA, cal4, 1E58 coat 2 ug/ml, 1E58-HRP 0.8 ug/ml, 450 nm
[21] = biological target: 구제역 바이러스 혈청형 O 배양액(cal1~cal4) (Foot-and-mouth disease virus serotype O); test: sandwich ELISA, cal1, 1E58 coat 2 ug/ml, 1E58-HRP 0.8 ug/ml, 450 nm
[22] = biological target: 구제역 바이러스 혈청형 O 배양액(cal1~cal4) (Foot-and-mouth disease virus serotype O); test: sandwich ELISA, cal3, 1E58 coat 4 ug/ml, 1E58-HRP 0.4 ug/ml, 450 nm
[23] = biological target: 구제역 바이러스 혈청형 O 배양액(cal1~cal4) (Foot-and-mouth disease virus serotype O); test: sandwich ELISA, cal4, 1E58 coat 2 ug/ml, 1E58-HRP 0.2 ug/ml, 450 nm
[24] = biological target: 구제역 바이러스 혈청형 O 배양액(cal1~cal4) (Foot-and-mouth disease virus serotype O); test: sandwich ELISA, cal2, 1E58 coat 8 ug/ml, 1E58-HRP 0.4 ug/ml, 450 nm
[25] = biological target: 구제역 바이러스 혈청형 O 배양액(cal1~cal4) (Foot-and-mouth disease virus serotype O); test: sandwich ELISA, cal2, 1E58 coat 1 ug/ml, 1E58-HRP 0.8 ug/ml, 450 nm
[26] = biological target: 구제역 바이러스 혈청형 O 배양액(cal1~cal4) (Foot-and-mouth disease virus serotype O); test: sandwich ELISA, cal2, 1E58 coat 4 ug/ml, 1E58-HRP 0.2 ug/ml, 450 nm
[27] = biological target: 불활화 FMDV 혈청형 O (Foot-and-mouth disease virus serotype O); remark: listed apart in the source
[28] = biological target: 구제역 바이러스 혈청형 O 배양액(cal1~cal4) (Foot-and-mouth disease virus serotype O); test: sandwich ELISA, cal1, 1E58 coat 1 ug/ml, 1E58-HRP 0.4 ug/ml, 450 nm
[29] = biological target: 구제역 바이러스 혈청형 O 배양액(cal1~cal4) (Foot-and-mouth disease virus serotype O); test: sandwich ELISA, cal1, 1E58 coat 1 ug/ml, 1E58-HRP 0.8 ug/ml, 450 nm
[30] = biological target: 구제역 바이러스 혈청형 O 배양액(cal1~cal4) (Foot-and-mouth disease virus serotype O); test: sandwich ELISA, cal3, 1E58 coat 2 ug/ml, 1E58-HRP 0.2 ug/ml, 450 nm

B1: 단클론항체 1E58 (antibody, V domains shown)
VH: EFQLQQSRPELAKPGASVKISCKTSGHTFTTYTMHWVKQSHVKSLEWIGCFNPNNGGATYNQKFKGKATLTMDKSSNTAYVEVRSLTSDDSAVYYCAYGNYVNFDYWGQGTTLTVSS
VL: DIVLTQSPASLAVSLGQRATISYRASKSVSTSGYSYMHWNQQKPGQPPRLLIYLVSNLESGVPARFSGSGSGTDFTLNIHPVEEEDAATYYCQHIRELTRSEGGPSWKN
- O.D [1]: 3.18 O.D
- O.D [2]: 4 O.D
- O.D [3]: 2.65 O.D
- O.D [4]: 1.11 O.D
- O.D [5]: 1.46 O.D
- O.D [6]: 3.12 O.D
- O.D [7]: 0.77 O.D
- ELISA screening plate (O.D) [8]: 2.02 O.D
- ELISA screening plate (O.D) [9]: 2.13 O.D
- ELISA screening plate (O.D) [10]: 1.93 O.D
- O.D [11]: 4 O.D
- O.D [12]: 3.47 O.D
- O.D [13]: 1.89 O.D
- O.D [14]: 0.83 O.D
- O.D [15]: 3.87 O.D
- O.D (450nm) [16]: 3.79 O.D
- O.D [17]: 2.98 O.D
- O.D [18]: 3.42 O.D
- O.D [19]: 2.35 O.D
- O.D [20]: 1.05 O.D
- O.D [21]: 4 O.D
- O.D [22]: 1.78 O.D
- O.D [23]: 0.62 O.D
- O.D [24]: 1.85 O.D
- O.D [25]: 1.97 O.D
- O.D [26]: 2.09 O.D
- O.D (450nm) [27]: 1.09 O.D
- O.D [28]: 2.43 O.D
- O.D [29]: 3.21 O.D
- O.D [30]: 0.98 O.D
